Experimental data as given in article PMC4936022, “Epigenetic silencing of serine protease HTRA1 drives polyploidy”.

Columns and labels:
[1] = target: T1, MBD2b (MBD2 lacking the N-terminal 149 residues) (UniProt Q9UBB5 150-411); test: EMSA; 70 pmol each, equimolar; 5 mM Mg2+; 1:1 stoichiometry; EMSA: 50 mM Tris, 5 mM MgCl2, 10 mM DTT, pH 7.5, 5 min, RT, 10 ul, 12% gel, ethidium bromide; protease protection: 50 mM Tris, 5 mM MgCl2, pH 7.5, 10 min RT with DNA, then trypsin 20 min 37 C; settings: protein: recombinant; tags: 6His; label: none (ethidium bromide stain); blunt
T1 sequence (Q9UBB5 150-411): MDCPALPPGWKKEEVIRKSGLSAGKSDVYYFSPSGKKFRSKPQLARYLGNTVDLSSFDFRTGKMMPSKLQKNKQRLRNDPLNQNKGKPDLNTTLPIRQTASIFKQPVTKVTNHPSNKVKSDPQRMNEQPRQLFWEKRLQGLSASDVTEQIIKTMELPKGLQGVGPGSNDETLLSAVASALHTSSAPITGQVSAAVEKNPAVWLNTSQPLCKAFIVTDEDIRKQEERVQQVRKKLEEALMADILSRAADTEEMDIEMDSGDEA

[2] = target: T1, MBD2b (MBD2 lacking the N-terminal 149 …); test: EMSA; 70 pmol each, equimolar; 5 mM Mg2+; EMSA: 50 mM Tris, 5 mM MgCl2, 10 mM DTT, pH 7.5, 5 min, RT, 10 ul, 12% gel, ethidium bromide; protease protection: 50 mM Tris, 5 mM MgCl2, pH 7.5, 10 min RT with DNA, then trypsin 20 min 37 C; settings: protein: recombinant; tags: 6His; label: none (ethidium bromide stain); blunt

B1: HTRA1 promoter 12-mer, methylated (dsDNA)
DNA 1: CTCAGCGAGAGA
DNA 2: TCTCTCGCTGAG
modifications: 5-methyl-dC at position 6 of the reverse strand (TCTCT-5mC-GCTGAG); forward-strand methylation not visible in the material (line truncated), probably 5mC at position 6
binding result [1]: binds

B2: HTRA1 promoter 12-mer, unmethylated (dsDNA)
DNA 1: CTCAGCGAGAGA
DNA 2: TCTCTCGCTGAG
binding result [2]: no binding
